Several values for one entry are separate records, joined by “and”; a condition that tells them apart may be missing. Equal entries are not always repeated.
Experiments:
[1] = molecular target: Selenomethionine-containing TraMΔ as crystallised (TraM 194-322) (Enterococcus faecalis (conjugative plasmid pIP501)); test: crystal structure
[2] = molecular target: TraM C-terminal domain (TraM 190-322) from the Enterococcus faecalis conjugative plasmid pIP501 (Enterococcus faecalis (conjugative plasmid pIP501)); test: cross-linking

| Substance | stoichiometry N [1] | stoichiometry N [2] |
| --- | --- | --- |
| Selenomethionine-containing TraMΔ as crystallised (TraM 194-322) (domain or fragment) | 3 | – |
| TraM C-terminal domain (TraM 190-322) from the Enterococcus faecalis conjugative plasmid pIP501 (domain or fragment) | – | 2 and 3 |

From PMC3548508
